# From the DeepSol protein solubility set
# Assay: soluble on expression in E. coli; label from the status in PepcDB or PDB records
row,Sequence,soluble on expression in E. coli
1,MPKRAVSFADDIETRVFKRDKREIEDGILDIPMEEDVVKERPGNADEDEEEKKKFHTLESDEEEEEDHKRLDTRRVEGQEDCGVDFDGSIKITAFNMKEDEEEGHFDETGNFIFDKKTKDVQDAWLDGIDWSLVKKKAGDQWEGDEDKKSLEDEEPEPITMSDARKKEIFEQLVNLLKPNQTVAKALSELKKKKGLSAAEERKLRWAAKKAGKSFEPTDGQKETSQLSGLADELISAGIMDAYEWHREKFNFQLQKMISTAADELDMFSDEPTSTGAARAAGAPMEQEEEEADDSVKWEYKANEEAKIEVEYEKTDDFGEIRVNKIGPIPTSEMMDRQSKGLLSAEGVARRSGTNGHFNPVARIDFELYL,soluble
2,MRLSRSSHHKTLDEYDFSFQPDLDPRKVRDLATLSFVEGRANAALLGVLVADEVGYQPLERAEARLVFQVISKRYEKGSIILASNKTFSEWGQVGPGFGDEVLATALLGRLLDHCDVISINGPGYRLRNRLKAIERENDVALEHHHHHH,not soluble
3,MQTVIFGRSGCPYSVRAKDLAEKLSNERDDFQYQYVDIRAEGITKEDLQQKAGKPVETVPQIFVDQQHIGGYTDFAAWVKENLDA,soluble
4,MSLQSVKVNIPFWLTGSPNVGFEYTLTRQLTVNGEVLWMPYLFKKHEEVFRALQSSVELRYYVNPRNFYTNDSWDGFYIGPYAMYGNFNIGLLKHNDPLQSYRRKGWGVSGGISTGYKFAFNSRWGLDLNIGLGYAHLQYNKYYLGGEYVNFPLERKKTKRWIGPTKFGINLTYNIFREGHHHHHH,not soluble
5,MPTPDFVLQLREKIGNDPLFLPGVTAVVIKDVPEGAPITAVPEVLLVKRADNGEWTPVTGIVDPGEQPHSAAVREVKEETGLDVTVEALLGVGAVGPVTYPNGDVSHYMDTAMRCEVVGDSTPRIGDDENTEVRWFSVMQMPPMKPRFRLVVGDAVAQLRRPEGFRPRMGYEKRERRR,not soluble
6,ELIRVGVVGTGYMGENHVRIYSEMEDVRLIGISDPNSSRVKELAARYETLPFSDHKKMFGKTNLDAISIAAPTTLHCPIVLDALEAGVDVLVEKPIADSVENATAMIESAEEMDRHLMVGHIERFNPAVLKLKEVVDSGVLGKIVSV,not soluble
7,MAHHHHHHMQTNYNEIRNLFNYYIREYFYQKSKGSYFVHFKKPGILFMSLKCYKRKKMYYPCIYDWYFDNLNNVKKNKDIFQYKNEYNTKNIYSHKICTEKENLGKNNSYVETDNIYLNKSEENLQNIYKSSNLYYNINPIYLSKICLYNLNEYHILYSNNYYDAFTQYYYSLISYKMDVHNMKIFPNLKILISHIKNISNIINDEVIKNAYIYLIKQRNIMNEEYLKNVFRNIYTTMLHNSSLYLFVDNHDQFIMILKIIKTDDIKSMFESAIPYPYYLIVDENINIYNLQSFNIYINSILNQRMQYNYPYNEKEKGSILNHYNNDKMYMTYNNNINQSKDIKIEKQTEQNEKGFNSMLDTDKGVYEKNIIKDKNDKVYFFKFIKIFDMKPNYRFKQKK,not soluble
8,MGSDKIHHHHHHMSNLLEVNSLNVQFNYDETTVQAVKNVSFELRKKHILGIVGESGSGKSITAKSILGLLPDYPDHTLTGEIIFNGQSLNNLSTSALQQIRGKDISMIFQDPLSSLNPRLTIGKQITEVLFQHKRVSKSEAKSMTINILEKVGIKHATRQFDAYPHELSGGMRQRVMIAMALILKPQILIADEPTTALDASTQNQLLQLMKSLYEYTETSIIFITHDLGAVYQFCDDVIVMKDGSVVESGTVESIFKSPQHTYTKRLIDAIPDIHQTRPPRPLNNDILLKFDRVSVDYTSPSGSLYRAVNDINLAIRKGETLGIVGESGSGKSTLAKTVVGLKEVSEGFIWYNELPLSLFKDDELKSLRQEIQMIFQDPFASINPRFKVIDVIKRPLIIHGKVKDNDDIIKTVVSLLEKVGLDQSFLYRYPHELSGGQRQRVSIARALAVEPKVIVCDEAVSALDVSIQKDIIELLKQLQLDFGITYLFITHDMGVINEICDRVAVMKNGEIVELNNTEDIIKHPQSDYAKQLISEVAVIAK,not soluble
9,MSLKQYSVKELTKLYKFLVIKANETRKLTLQDKNGIVKSNTDYNGVINRAQLGYDNILDILPSVSGSYSKPKYIISSNLMCYTGITGIYFPFTGEANVNIAIPDLYIPCTVEHEMAHQRGFASEDEANFIAYLTSIKHPNIDFNYSGYILALNYTASALSKVDYNAYVDISAGISDSVRRDLKNESEFWQKYEGKINEISNEFNNSYLKANGVTEGTQSYGKMVDLLLTYYELYPYNEGHHHHHH,soluble
10,MGSDKIHHHHHHMYLKISHTTEYHYDEPVQYALQRLRLTPVNLPGQTVRNWKTLVDGAAIEVSYDDQFGNRTHLVSLDADRTTLCIEANGEVETEDRAGVFGAHQSYVPLWLYARETPLTKPGKRIRELAKAAGGATELERMHALMAIIHETVRYEQGETQVGTSAEEALERGKGVCQDHAHILISAARTLGLPARYVSGYLMMEDHPQQTASHAWADVHIAGLGWVGFDPANKVCPDDRYVRIASGLCYRDAAPVSGLVHGTGTETLKVAVTVEQQGQSQAQN,not soluble
11,MKPFVPKLVYFEPEALSYPLGQELYEKFTQMGIEIRETTSHNQVRGIPGETELARYRNAKSTLVVGVRRTLKFDSSKPSAEYAIPLATGCMGHCHYCYLQTTLGSKPYIRVYVNLDDIFAQAQKYIDERAPEITRFEAACTSDIVGIDHLTHSLKKAIEFIGATDYGRLRFVTKYEHVDHLLDAKHNGKTRFRFSVNSRYVINHFEPGTSSFDARLQAARKVAGAGYKLGFVVAPIYRHDGWEQGYFELFQELARQLEGVDLSDLTFELIQHRFTKPAKRVIEQRYPKTKLDLDESKRKYKWGRYGIGKYVYRDKEARELEETMCSYIARFFPSAQVQYFT,not soluble
12,MVPEVIEIDGKQWRLIWHDEFEGSEVNKEYWTFEKGNGIAYGIPGWGNGELEYYTENNTYIVNGTLVIEARKEIITDPNEGTFLYTSSRLKTEGKVEFSPPVVVEARIKLPKGKGLWPAFWMLGSNIREVGWPNCGEIDIMEFLGHEPRTIHGTVHGPGYSGSKGITRAYTLPEGVPDFTEDFHVFGIVWYPDKIKWYVDGTFYHEVTKEQVEAMGYEWVFDKPFYIILNLAVGGYWPGNPDATTPFPAKMVVDYVRVYSFVSG,soluble
13,MAHHHHHHMKFAFVFPGQGSQSVGMLNAFADVAVVRETLDEASDALGQDIGKLIADGPADELNLTTNTQPVMLTAAYACYRAWQQAGGAQPSIVAGHSLGEYTALVAAGAIAFRDALPLVRFRAQAMQTAVPVGVGGMAAILGLDDDTVRAVCAEASATGVVEAVNFNAPAQVVIAGTKAGIEKACEIAKEKGAKRALPLPVSAPFHSSLLKPASDKLREYLAGVDVKAPKISVVNNIDVAVVSDPAAIKDALVRQAAGPVRWVECVQHIAREGVTHVIECGPGKVLAGLTKRIDGNLVGASVFDPASLDEALKLAAA,soluble
14,MGSDKIHHHHHHMSDRKEDLERQINLTFAFLSANSYSRKFLTQVWIRDNVGDYKGLTDTAFRKKLQRDLAYLRRVGVPIEQFTVTSGIAEGQQAYRLAQDSYKLPEVEFTPDEAAVLGMAGEMGHNQELGAFARSGWTKLAAGGAQRDLSTSTALTNAGDLGSLSAKTLDAIIKARQLGKQISFEYRRAPKDAPSLRHMDPWGLVPERDRIYLVGFDLDRQEARTFRITRVRNINLGADATHPMPAGTNLQDMVRAQLRRKSVLIDATLRITPGRAVELRAAGVETSDGAWFLEDVDRDWLVRTAAAHAPEALVIEPKDVIDDVIALLRKVENEVV,not soluble
15,MAFHWQSKVNVQHVGVDDMVLLPKLTEQSIVENLKKRLQANSIFTYIGPVLISVNPFKQMPYFTEKEMLLYQGAAQYENAPHIYALADNMYRNMLIDNESQCVIISGESGAGKTVNAKFIMNYISRISGGGQKVQHIKDVILQSNPLLEAFGNSATVRNWNSSRFGKYVEIVFSRGGEPIGGKLSNFLLEKSRVVHQNEGDRNFHVFYQLCAGADKNLRSTFGIGELQYYNYLNMSGVFKADDTDDGKEFESTLHAMKVVGVNDQDQLEVLRIVATVLHIGNITFTEENNFAAVSGKDYLEYPAFLLGLTSADIEAKLTGRKMESKWGTQKEEIDMKLNVEQASYTRDAWVKAIYARLFDYLVKKVNDAMNITSQSTSDNFSVGILDIYGFEIFNNNGFEQFCINFVNEKLQQIFIELTLKAEQEEYVREGIKWTEIDYFDNKIVCDLIETKRPPGIMSLLDDTCAQNHGQREGVDRQLLTTLSKSFAGHPHFGPGSDSFVIKHYAGDVTYNVDGFCDRNRDVLYPDLILLMQKSSRPFIQALFPENVAASAGKRPTTFSTKIRTQANTLVESLMKCSPHYVRCIKPNETKRPNDWEESRVKHQVEYLGLRENIRVRRAGFAYRRAFDKFAQRYAIVSPQTWPCFQGDQQRACEIICDSVHMEKNQYQMGKTKIFVKNPESLFLLEETRERKFDGYARVIQKAWRQFSARKQHIKQKEQAADLMYGKKERRRYSLNRNFVGDYIGLEHHPTLQSLVGKRQRVLFACTANKYDRKFRVTKLDLLLTVNHLTLIGKEKVKNGPEKGKIVEVIKRQFDLPQIKSIGLSPYQDDFVILYLGNDDYSSLLETPFKTEFCTALSKAYKERTNGTLHLDFRSSHVVSYKKMKFDFSDGKRTVQFGNDGTSSAEKTLKPNGKVLNVSIGTGLPNTTRPSTERPQGGYTPRRDQLRTSTRRTKQNNQSYGQNGQSQAMRAPVPAHGMNNNYNQTPAPVSTNHQYSQEPARIPVMGNVINQLNNMNLSGNGNSPAGRGPPPARGPKPPPPAKPKLNPVVIAVYPYEAQDVDELSFEAGAEIELMNKDASGWWQGKVNNRVGLFPGNYVKE,not soluble
16,MGSDKIHHHHHHMSGETLYQQLVNEWMELIRNGTVRPGERLPSVRKACAMHKVSPSTILQTYRMLEDRGLIEARPQSGFYVKSAASLPLPRMRRQSAAHHTGEVVDQIEAVMGVQSQADFIDLALASPRGSDFYPTTRFKHIMGRLLRQHPELTTDYPFPPGSERLRRQIAQRAVNWGCVLAADELVISNGCTEALQLALRAVCKPGDTVGVESPTYFALLPMLKDLGLAVIEIPTHPTSGLALDALELLLSEKRLNAVVAMPTVHNPLGSTMPPEAKRRLAQLVNDYQVPLIEDVPHAELFYGASTPDAVKAYDRDGWVLLCSSYSKTLAPGFRIGWIAPGRFLSEVRRLKFSSSLGQPALLEETLAEYLESGGYDHHLRLLRRHFISQMEKLRGAVAQHFPDGTRATLPSGGCLLWVELPSHADTMQLFRAALAERITVVPGAMYSAKGRYRNCLRLSCCYPWNEAYQRALIRVGELAGELAEGH,not soluble
17,MGSDKIHHHHHHMSESWVAVTGATGFIGNALLQSLIKEGWKVRALTRRARVDDESTQWIEGDLHDRDALRKLVTGVSAVVHCAGQVRGSSLESFVRTNVEGTANLMQASLEQNPPPRFLLVSSLAARQPELSWYATSKHMAERLIDERSAGMACAIFRPTAVYGPGDKEMSPLFRITRRGILPMVGQPEMRFGLLHVADLVAAITCWLSTAVPVQGTYELDDGMPGGYDSQAVATIAQEVWKRPVRCVFFPAPLVSLIANINLWSARMLSYSPMLTPGKVRELRHPDWVCDIDPLTRALPGWRPCIHLRDALPQAV,not soluble
18,MGSDKIHHHHHHSCGNKDKGTTVPEGNPSDREAMLKNVADNIVIPANAKFEIKLDNMIAKSDVFRNNPTVTTLSEYRIAWAEAYIEWQKIGIFDFGPAADVALNSYMNVYPANVSNINANILSGNANLEVFESYSAQGFPAIDYLINGSADTDDDIVALYVTGEDADKRKAYLLRLTNQMHAKFEAVNAAWKGDYRNTFVSSTGTGLNASTSVMVNGIVFYYERFIRSGKFGIPSGAMTGTPLNASVEAYYKKDIGKILAQTAQQAFVDYFNGKGVTTGIEGPSLKTYLNALDAKDATTKQPLSEIINNQFTVVDSKLNVLSDNLSNEVLTNKAAMVAVYNEMQKAVRMLKVDMTSALSVTITYTDNDGD,not soluble
